These results are taken from publication doi:10.1101/2024.10.14.618141 (bioRxiv, 2024).

Holding throughout (assay): pull-down
The target in assay [1] is CDK12/Cyclin K complex, full-length (WT) CDK12 (human, UniProt Q9NYV4;O75909).
For assay [2], the target named is PAF1C-YY/AA (PAF1C containing CDC73-YY/AA) (human, UniProt Q6PD62;Q6P1J9;Q8WVC0;Q8N7H5;Q9GZS3, Y290A | Y293A).
Assay [3] concerns the target PAF1 complex (five-subunit PAF1C, WT) (human, UniProt Q6PD62;Q6P1J9;Q8WVC0;Q8N7H5;Q9GZS3).

Chain of CDK12/Cyclin K complex, full-length (WT) CDK12 (Q9NYV4 whole entry, one chain of several): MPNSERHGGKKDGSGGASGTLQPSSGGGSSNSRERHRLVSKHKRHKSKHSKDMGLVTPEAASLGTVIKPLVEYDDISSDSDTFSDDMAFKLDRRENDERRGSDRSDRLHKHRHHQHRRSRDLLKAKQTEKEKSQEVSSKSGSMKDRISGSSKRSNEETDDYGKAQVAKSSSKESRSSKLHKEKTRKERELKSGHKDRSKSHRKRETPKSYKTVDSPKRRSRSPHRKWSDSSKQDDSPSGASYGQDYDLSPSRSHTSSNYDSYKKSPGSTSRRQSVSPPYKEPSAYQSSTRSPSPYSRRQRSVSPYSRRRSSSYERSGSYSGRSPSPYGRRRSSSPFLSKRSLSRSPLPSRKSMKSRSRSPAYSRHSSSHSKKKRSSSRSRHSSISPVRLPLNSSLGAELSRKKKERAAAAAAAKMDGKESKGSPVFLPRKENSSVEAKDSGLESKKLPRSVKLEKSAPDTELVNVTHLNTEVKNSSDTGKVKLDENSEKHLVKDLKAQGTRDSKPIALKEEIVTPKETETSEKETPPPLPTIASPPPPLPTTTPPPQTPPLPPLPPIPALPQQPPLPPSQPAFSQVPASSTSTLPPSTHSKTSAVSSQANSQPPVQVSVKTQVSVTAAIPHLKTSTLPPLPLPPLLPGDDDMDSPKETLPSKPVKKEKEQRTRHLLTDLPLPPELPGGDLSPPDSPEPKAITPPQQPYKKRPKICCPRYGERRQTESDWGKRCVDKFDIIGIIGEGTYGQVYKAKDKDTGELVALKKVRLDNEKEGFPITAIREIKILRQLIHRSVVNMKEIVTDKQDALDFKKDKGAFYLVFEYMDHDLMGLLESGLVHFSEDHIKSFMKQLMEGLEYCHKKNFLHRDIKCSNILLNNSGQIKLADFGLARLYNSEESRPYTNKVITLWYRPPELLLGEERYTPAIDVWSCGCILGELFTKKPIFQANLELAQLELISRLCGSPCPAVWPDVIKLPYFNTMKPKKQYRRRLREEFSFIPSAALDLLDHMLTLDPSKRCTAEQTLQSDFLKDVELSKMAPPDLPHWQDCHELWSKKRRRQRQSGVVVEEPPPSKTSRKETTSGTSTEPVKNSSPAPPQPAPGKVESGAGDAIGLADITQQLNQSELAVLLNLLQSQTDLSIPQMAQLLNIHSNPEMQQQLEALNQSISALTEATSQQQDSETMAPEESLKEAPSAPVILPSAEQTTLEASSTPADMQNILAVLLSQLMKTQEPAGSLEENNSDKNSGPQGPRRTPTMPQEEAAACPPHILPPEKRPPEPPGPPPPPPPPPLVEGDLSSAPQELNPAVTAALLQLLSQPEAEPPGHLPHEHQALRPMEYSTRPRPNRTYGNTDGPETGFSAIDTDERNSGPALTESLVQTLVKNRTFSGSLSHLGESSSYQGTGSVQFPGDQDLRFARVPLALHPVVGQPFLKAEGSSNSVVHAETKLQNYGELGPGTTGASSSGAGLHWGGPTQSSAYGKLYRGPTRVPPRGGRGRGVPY

B1: Flag-GST-RPB1-CTD(1586-1971) (domain or fragment)
chain: GGAMSPSYSPTSPAYEPRSPGGYTPQSPSYSPTSPSYSPTSPSYSPTSPNYSPTSPSYSPTSPSYSPTSPSYSPTSPSYSPTSPSYSPTSPSYSPTSPSYSPTSPSYSPTSPSYSPTSPSYSPTSPSYSPTSPSYSPTSPSYSPTSPSYSPTSPSYSPTSPNYSPTSPNYTPTSPSYSPTSPSYSPTSPNYTPTSPNYSPTSPSYSPTSPSYSPTSPSYSPSSPRYTPQSPTYTPSSPSYSPSSPSYSPTSPKYTPTSPSYSPSSPEYTPTSPKYSPTSPKYSPTSPKYSPTSPTYSPTTPKYSPTSPTYSPTSPVYTPTSPKYSPTSPTYSPTSPKYSPTSPTYSPTSPKGSTYSPTSPGYSPTSPTYSLTSPAISPDDSDEEN
Consider B1, for which the binding result in assay [1] is listed as “binds”.

B2: CDK12(KiD)/Cyclin K complex (complex)
chain 1: not shown
chain 2: MKENKENSSPSVTSANLDHTKPCWYWDKKDLAHTPSQLEGLDPATEARYRREGARFIFDVGTRLGLHYDTLATGIIYFHRFYMFHSFKQFPRYVTGACCLFLAGKVEETPKKCKDIIKTARSLLNDVQFGQFGDDPKEEVMVLERILLQTIKFDLQVEHPYQFLLKYAKQLKGDKNKIQKLVQMAWTFVNDSLCTTLSLQWEPEIIAVAVMYLAGRLCKFEIQEWTSKPMYRRWWEQFVQDVPVDVLEDICHQILDLYSQGKQQMPHHTPHQLQQPPSLQPTPQVPQVQQSQPSQSSEPSQPQQKDPQQPAQQQQPAQQPKKPSPQPSSPRQVKRAVVVSPKEENKAAEPPPPKIPKIETTHPPLPPAHPPPDRKPPLAAALGEAEPPGPVDATDLPKVQIPPPAHPAPVHQPPPLPHRPPPPPPSSYMTGMSTTSSYMSGEGYQSLQSMMKTEGPSYGALPPAYGPPAHLPYHPHVYPPNPPPPPVPPPPASFPPPAIPPPTPGYPPPPPTYNPNFPPPPPRLPPTHAVPPHPPPGLGLPPASYPPPAVPPGGQPPVPPPIPPPGMPPVGGLGRAAWMR
Turning to B2, the binding result in assay [2] and in assay [3] was “binds” throughout.
